Data on one molecule can be found in patent US20110039770A1 (PHARMAGAP, published 2011).

Test [1] addresses T1, PKC-α (purified isoform) (Homo sapiens (Human), UniProt P17252 2-672).
T1 construct: also called purified PKC-alpha; commercially purified PKC-alpha
Put plainly: competitive ELISA, coated purified PKC-α, vs anti-PKC α (SC-208); PRE 50 µM. An outline of the steps:
(§1)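 Wells were coated overnight at 4 °C with purified PKC isoform at 250 ng/mL in PBSN, blocked 1 h at 37 °C, and then given PRE diluted in PBSN from a 20 mM DMSO stock for 1 h at room temperature. The AP-conjugated anti-rabbit antibody was developed with pNPP (pH 9.8) and read at 405 nm.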
(In an ELISA, binding on a coated surface is turned into a signal by an enzyme label.)

The target in test [2] is T2, PKC-δ (purified isoform).
T2 construct: also called PKC-delta
T2 sequence (Q05655 whole entry, stated change not applied, canonical isoform): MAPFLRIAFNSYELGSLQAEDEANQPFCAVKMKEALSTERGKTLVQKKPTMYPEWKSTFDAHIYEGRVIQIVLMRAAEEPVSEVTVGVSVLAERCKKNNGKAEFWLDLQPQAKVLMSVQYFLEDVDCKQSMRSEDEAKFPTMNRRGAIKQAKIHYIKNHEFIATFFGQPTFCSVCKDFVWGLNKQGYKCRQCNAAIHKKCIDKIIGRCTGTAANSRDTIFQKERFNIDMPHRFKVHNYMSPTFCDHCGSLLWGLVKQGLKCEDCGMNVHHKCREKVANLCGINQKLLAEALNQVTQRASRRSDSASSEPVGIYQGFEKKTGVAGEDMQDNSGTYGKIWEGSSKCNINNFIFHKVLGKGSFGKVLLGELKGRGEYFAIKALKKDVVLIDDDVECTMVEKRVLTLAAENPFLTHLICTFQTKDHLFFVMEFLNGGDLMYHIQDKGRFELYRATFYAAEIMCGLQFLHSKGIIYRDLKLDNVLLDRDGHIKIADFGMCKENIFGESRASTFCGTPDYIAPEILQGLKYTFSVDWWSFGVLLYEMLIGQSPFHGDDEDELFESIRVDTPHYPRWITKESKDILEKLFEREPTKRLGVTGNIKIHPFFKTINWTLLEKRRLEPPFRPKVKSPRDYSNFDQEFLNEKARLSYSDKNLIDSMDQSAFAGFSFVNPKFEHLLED
Kind of test: competitive ELISA, coated purified PKC-δ, vs anti-PKC δ (SC-213); PRE 50 µM. Summed up:
as §1

For test [3], the target named is T1, PKC-α (purified isoform). Kind of test: competitive ELISA, coated purified PKC-α, vs anti-PKC α (SC-208); PRE 200 µM. An outline of the steps: as §1
Test [4] deals with T2, PKC-δ (purified isoform). Put plainly: competitive ELISA, coated purified PKC-δ, vs anti-PKC δ (SC-213); PRE 100 µM. Summed up: as §1
Test [5] addresses T3, PKC-βI (purified isoform) (Homo sapiens (Human), UniProt P05771 2-671).
T3 construct: also called PKC-beta I; PKC beta 1
Put plainly: competitive ELISA, coated purified PKC-βI, vs anti-PKC βI (SC-209); PRE 100 µM.

For test [6], the target named is T3, PKC-βI (purified isoform). Kind of test: competitive ELISA, coated purified PKC-βI, vs anti-PKC βI (SC-209); PRE 200 µM.
The target of test [7] is T4, PKC-βII (purified isoform) (Homo sapiens (Human), UniProt P05771 2-621).
T4 construct: also called PKC-beta II; PKC beta 2
T4 sequence (P05771 other isoform, or with tags, fused parts or gaps limits assumed): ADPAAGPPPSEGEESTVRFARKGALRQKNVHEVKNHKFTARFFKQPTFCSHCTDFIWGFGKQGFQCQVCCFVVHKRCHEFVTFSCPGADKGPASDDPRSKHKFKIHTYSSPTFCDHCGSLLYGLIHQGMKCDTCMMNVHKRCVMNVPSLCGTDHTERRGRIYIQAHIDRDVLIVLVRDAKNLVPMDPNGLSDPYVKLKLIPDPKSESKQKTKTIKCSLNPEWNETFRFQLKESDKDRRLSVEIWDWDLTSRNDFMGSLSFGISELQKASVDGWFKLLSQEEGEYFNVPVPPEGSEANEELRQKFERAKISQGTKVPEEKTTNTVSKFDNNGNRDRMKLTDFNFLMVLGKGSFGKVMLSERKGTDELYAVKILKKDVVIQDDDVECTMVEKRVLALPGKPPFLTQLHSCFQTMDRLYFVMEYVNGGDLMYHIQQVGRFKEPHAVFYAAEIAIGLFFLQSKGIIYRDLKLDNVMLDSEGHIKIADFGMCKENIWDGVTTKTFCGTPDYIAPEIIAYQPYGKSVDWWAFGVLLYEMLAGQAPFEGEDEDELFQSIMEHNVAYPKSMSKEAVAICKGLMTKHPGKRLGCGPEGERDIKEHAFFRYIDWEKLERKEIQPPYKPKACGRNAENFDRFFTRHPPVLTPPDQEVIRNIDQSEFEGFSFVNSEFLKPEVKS
Put plainly: competitive ELISA, coated purified PKC-βII, vs anti-PKC βII (SC-210); PRE 100 µM. On the procedure: Greiner 96 well ELISA plates were coated with the appropriate PKC isoform diluted in PBSN (PBS with Calcium/Magnesium+0.05% Sodium azide w/w). 50 μL/well at 250 ng/mL was used. Control wells contained PBSN only. Plates were incubated overnight at 4° C.
The plates were washed 3 times with 200 μL of dH₂O per well, then 100 μL of blocking solution was added per well and the plate incubated for 1 h at 37° C. The washing steps with dH₂O were repeated and 50 μL of the appropriate PRE solution (PRE stock solution [20 mM in DMSO] diluted in PBSN) was added and the plate incubated for 1 h at room temperature.
50 μL of 1:1000 dilution of Alkaline Phosphatase (AP) conjugated antibody (anti-rabbit for all except zeta, which was anti-goat) was then added and the plate incubated for 1 h at room temperature. Washing with dH₂O was then repeated. Finally, 100 μL of pNPP solution in pNPP buffer (2 mM MgCl₂, 100 mM Sodium bicarbonate in water, pH 9.8) was added to all wells and incubated for 8 minutes for α, βI, βII ε, and ζ, or for 15-20 mins for δ (until sufficient coloration is observed). The reaction was stopped by addition of Stop solution (2N NaOH) and the absorbance at 405 nm was read on a Galaxy Plate reader.

Test [8] has as its target T5, PKC-ε (endogenous, IMR-32 lysate) (human, UniProt Q02156 1-737).
T5 construct: Band 1 and Band 2 (alternate splicing variants, not identified further) are kept under one molecule; the band is named in the assay field of each row; also called PKC-epsilon; PKC-ε Band 1
T5 sequence (looked up): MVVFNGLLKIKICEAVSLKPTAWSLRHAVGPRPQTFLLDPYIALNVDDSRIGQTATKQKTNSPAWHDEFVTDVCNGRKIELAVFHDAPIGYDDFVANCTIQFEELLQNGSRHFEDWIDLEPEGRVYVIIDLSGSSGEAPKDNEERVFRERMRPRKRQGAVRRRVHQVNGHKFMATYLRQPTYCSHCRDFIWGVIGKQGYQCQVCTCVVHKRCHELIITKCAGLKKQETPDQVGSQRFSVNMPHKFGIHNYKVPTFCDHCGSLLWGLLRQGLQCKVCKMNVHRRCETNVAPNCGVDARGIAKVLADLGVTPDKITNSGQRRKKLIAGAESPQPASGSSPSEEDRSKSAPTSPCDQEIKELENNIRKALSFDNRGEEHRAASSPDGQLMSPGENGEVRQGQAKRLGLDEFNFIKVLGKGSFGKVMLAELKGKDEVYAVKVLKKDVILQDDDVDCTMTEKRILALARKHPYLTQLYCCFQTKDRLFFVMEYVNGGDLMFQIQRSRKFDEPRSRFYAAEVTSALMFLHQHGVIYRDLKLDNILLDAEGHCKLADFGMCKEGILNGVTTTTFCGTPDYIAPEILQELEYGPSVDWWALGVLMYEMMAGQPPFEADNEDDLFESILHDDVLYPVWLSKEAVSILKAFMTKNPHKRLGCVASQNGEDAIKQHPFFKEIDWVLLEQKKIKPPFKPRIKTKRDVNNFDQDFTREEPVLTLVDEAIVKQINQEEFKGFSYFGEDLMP
Put plainly: WB competition Protocol B, IMR-32 extract, vs anti-PKC-ε Ab; PKC-ε Band 1; 20 µg peptide. On the procedure: (§2) The ability of the peptides PRE 2 and PRE 3 (see Table 4) to interfere with the binding of a PKC-α-specific polyclonal antibody (Santa Cruz Biotechnology, Inc.) to PKC-α was determined using a modified version of the protocol outlined above in which the test peptide was added directly to the cell extract prior to electrophoresis at a concentration of either 5× or 15× the concentration of the protein applied to each well of the gel for the Western blots (20 μg).
(§3) Peptides PRE 2, PRE 3 and PRE 4 (see Table 4) were tested for their ability to interfere with the binding of isoform-specific polyclonal antibodies (Santa Cruz Biotechnology, Inc.) to […] using the general protocol described in Example 3. Two bands, representing alternate splicing variants of PKC-ε, were identified on the Western blot using this anti-PKC-ε antibody.

Test [9] addresses T5, PKC-ε (endogenous, IMR-32 lysate). Kind of test: WB competition Protocol B, IMR-32 extract, vs anti-PKC-ε Ab; PKC-ε Band 1; 50 µg peptide. On the procedure: as §2, §3
Test [10] shares this target. Put plainly: WB competition Protocol B, IMR-32 extract, vs anti-PKC-ε Ab; PKC-ε Band 2; 50 µg peptide. On the procedure: as §2, §3
For test [11] the target is unchanged. Kind of test: WB competition Protocol B, IMR-32 extract, vs anti-PKC-ε Ab; PKC-ε Band 1; 100 µg peptide. On the procedure:
as §2, §3

T3 sequence (P05771 2-671 limits assumed): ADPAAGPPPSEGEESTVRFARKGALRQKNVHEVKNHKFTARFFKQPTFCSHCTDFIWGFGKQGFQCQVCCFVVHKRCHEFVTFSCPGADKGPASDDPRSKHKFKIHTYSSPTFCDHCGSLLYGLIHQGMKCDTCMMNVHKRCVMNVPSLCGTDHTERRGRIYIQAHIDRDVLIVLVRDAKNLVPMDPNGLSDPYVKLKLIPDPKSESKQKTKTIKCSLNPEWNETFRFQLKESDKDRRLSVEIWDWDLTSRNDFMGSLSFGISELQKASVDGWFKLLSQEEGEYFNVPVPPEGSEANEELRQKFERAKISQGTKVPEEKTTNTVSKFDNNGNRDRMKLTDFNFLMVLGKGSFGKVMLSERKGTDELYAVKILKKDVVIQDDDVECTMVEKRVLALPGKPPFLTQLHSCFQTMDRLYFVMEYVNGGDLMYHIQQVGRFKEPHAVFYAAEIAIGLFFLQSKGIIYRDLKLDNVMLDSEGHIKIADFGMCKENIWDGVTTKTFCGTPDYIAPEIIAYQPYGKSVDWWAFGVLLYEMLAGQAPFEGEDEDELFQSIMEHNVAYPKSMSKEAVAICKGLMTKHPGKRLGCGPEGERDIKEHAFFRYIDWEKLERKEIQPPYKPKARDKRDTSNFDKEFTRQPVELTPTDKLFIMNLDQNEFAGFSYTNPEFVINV

Take Ac-KDAQNLIGISI-NH2 (also called peptide PRE 4) [PRE 4]: the “relative binding capacity (100-%n, DMSO subtracted)” value was determined as 6.46% with PKC-α (purified isoform) [1]; 29.2% in the test with PKC-δ (purified isoform) [2]; 22.8% in the test with PKC-α (purified isoform) [3]; 30.7% in the test with PKC-δ (purified isoform) [4]; 15.7% in test [5]; 7.46% in [6]. Also, the “relative binding capacity (100-%n, DMSO subtracted)” value in [7] was 13.5%. For the same molecule, the “Band Intensity” value in [8] was 184; in test [9], 0; in test [10], 0; in test [11], 0. In addition, the “Inhibition (%)” value in test [8] turned out to be 42.9%; in [9], 100%; in test [10], 100%; in test [11], 100%. Also, the “Relative Intensity (%)” value is 57.1% in [8], 0% in [9], 0% in [10] and 0% in test [11].
